Measured values published in patent US5385834.

Columns and labels:
[1] = biological target: T7 RNA polymerase mutant GP1(lys222) E222K (Bacteriophage T7) (UniProt P00573); conditions: in vitro transcription, +/-0.008 vs T7 promoter; 40 nM enzyme; may be nonspecific initiation
[2] = biological target: T7 RNA polymerase (wild-type) (Bacteriophage T7) (UniProt P00573); conditions: in vitro transcription, +/-0.003 vs T7 promoter; 80 nM enzyme

T3 promoter plasmid pLM10
activity [1]: 0.027 relative | activity [2]: 0.009 relative
